The record followed here is patent publication US20230250157A1 (CALIFORNIA INSTITUTE OF TECHNOLOGY, published 2023).

The target in assay [1] is T1, SARS-CoV-2 WA1 RBD (SARS-CoV-2 WA1, UniProt P0DTC2 319-539).
T1 construct: range 319-539
In words: X-ray crystallography of SEC-purified Fab-RBD complex (PDB 7UZC).

Assay [2] deals with T2, SARS-CoV RBD (SARS-CoV, UniProt P59594 318-510). Nature of the assay: Beacon optofluidic screen: IgG secreted by single B cell, RBD on beads.
Assay [3] has as its target T1, SARS-CoV-2 WA1 RBD. Described as above.
The target of assay [4] is T1, SARS-CoV-2 WA1 RBD. Nature of the assay: X-ray crystallography of SEC-purified Fab-RBD complex.
Assay [5] concerns the target T2, SARS-CoV RBD. In words: ELISA, coated RBD, purified IgG.
For assay [6], the target named is T1, SARS-CoV-2 WA1 RBD. In words: X-ray crystallography of SEC-purified Fab-RBD complex (PDB 7UZD).
Assay [7] deals with T1, SARS-CoV-2 WA1 RBD. In words: ELISA, purified IgG. A general note: An ELISA detects its analyte on a solid surface through an enzyme-linked reagent.

B1: M8a-34 Fab (Fab, V domains shown)
VH: QVQLQQPGAELVKPGASVKMSCKASGYTFITYWITWVKQRPGQGLEWIGDIYPGGGRTNYNEKFKSKATLTVDTSSSTAYMQLRSLTSEDSAVYYCARYDGNYVGYYYAMDYWGQGTSVTVSS
VL: DIVLTQSPVSLAVSLGQRATISCRASESVDFYGNSFIYWYQQKPGQAPKLLIYRASNLESGIPARFSGSGSRTDFTLTIHPVEADDVATYYCQQSIEDPRTFGGGTKLEIK
As to B1, the binding result with SARS-CoV-2 WA1 RBD [1] is “binds”.

B2: M8a-34 (antibody, V domains shown)
VH: B1 VH
VL: B1 VL
On to B2, for which the binding result in the assay with SARS-CoV RBD [2] and in the assay with SARS-CoV-2 WA1 RBD [3] was “binds” throughout.

B3: M8a-7 (antibody, V domains shown)
VH: QAYLQQSGAEMVRPGASVKMSCKASGYTFNNYNMHWVKQTPSQGLEWIGGFYPGNDDTAYSQKFKGKATLTVDKSSSTAFMHLSSLTSEDSAVYFCARSLGRYYAMDYWGQGTSVTVSS
VL: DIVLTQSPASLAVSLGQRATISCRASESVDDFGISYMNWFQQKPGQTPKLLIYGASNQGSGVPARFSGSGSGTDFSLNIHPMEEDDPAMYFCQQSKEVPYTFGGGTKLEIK
Regarding B3, the binding result with SARS-CoV RBD [2] is recorded as “binds”.

B4: M8a-6 (antibody, V domains shown)
VH: QVQLQQPGTELVMPGASVKLSCKTSGYTFTHYWMHWVKQRPGEGLEWIGEIAPSDNYVKYNQKFKGKSTLSVDRSSSTAYMQLSSLTSEDSAVYFCARPDNSGYPVYFDYWGQGTSLTVSS
VL: DIVMTQSQKFMSTSLGDRVSISCKASQDVGTTVAWYQQKPGQSPKLLIYWASTRHTGVPDRFTGTGSGTDYTLTISSVAAEDLALYYCQQHYNTPYTFGGGTKLEIE
In the case of B4, in the assay with SARS-CoV-2 WA1 RBD [3], the binding result is “binds”.

B5: M8a-6 Fab (Fab, V domains shown)
VH: B4 VH
VL: B4 VL
Regarding B5, the binding result with SARS-CoV-2 WA1 RBD [4] is “binds”.

B6: M8a-25 (antibody, V domains shown)
VH: EVQLQQSVAELVRPGASVKLSCTASGFNIKNTYMHWVKQRPEQGLEWIGRIDPSIDHTRYAPKFQGKAVITAFTSSNTAYLQLSSLTSEDTAIYYCAREGGGNYPYYYAIDYWGQGTSVTVSS
VL: DIQMTQSSSSFSVSLGDRVTITCKASEDIYIRLAWYQQRPGNAPRLLISNAISLETGVPSRFSGSGFGKDHTLSITSLQTEDVATYYCQQYWSTPWTFGGGTKLEIK
B6: in the assay with SARS-CoV RBD [2], the binding result is listed as “binds”.

B7: M8a-28 (antibody, V domains shown)
VH: QVQLQQPGAELVKPGASVKMSCKASGYNFNHYWISWVKQRPGQGLEWIGDIYPLSHFTTYNEKFTNRATLTVDTSSTTAYMQLNSLTSDDSAVFYCARWDYFDSRTFDYWGQGTTLTVSS
VL: DILLTQFPAILSVSPGERVSFSCRASQTIGTNIHWYQQRINGSPRLLIKYASESISGIPSRFSGSGSGTDFSLSINNVESEDIADYYCQQINSWPLTFGAGTKLDLK
As to B7, in the assay with SARS-CoV RBD [2], the binding result is reported as “binds”.

B8: HSW-1 (antibody, V domains shown)
VH: QVQLQQPGAELVKPGTSMKLSCKASGYTFTSYWMHWVKQRPGQGLEWIGMIHPNSGSTKYNENFKSKATLTVDKSSSTAYMQFSSLTSEDSAVYYCVRSGSYYGTTYDYFDYWGQGTTLTVSS
VL: DIVLTQSPASLAVSLGQRATISCRASESVNIYGNSFMHWYQQKPGQPPKLLIFRASNLESGIPVRFSGSGSRTDFTLTINPVEADDVATYYCHQSNEDPFTFGSGTKLEIK
Regarding B8, the results for the binding result with SARS-CoV-2 WA1 RBD [3] and with SARS-CoV RBD [5] were “binds” and “no binding (tested: up to 100 µg/mL IgG)”, respectively.

B9: M8a-3 (antibody, V domains shown)
VH: QVQLQQPGAELVLPGASVKLSCKASGYTFTNYWMHWVKQRPGHGLEWIGEIDPFDTYIKINQKFKGKSTLTVDTSSSTAYMQLSSLTSEDSAVYYCARPDSSGYPVYFDYWGQGTTLTVSS
VL: DIVMTQSHKFMSTSVGDRVSITCKASQDVGTYIAWYQQKPGQSPKLLIYWASTRHTGVPDRFTGSGSGTNYTLTISSVQAEDLALYHCQQHYSTPYTFGGGTKLEIK
As to B9, the binding result with SARS-CoV RBD [2] is given as “binds”.

B10: HSW-2 Fab (Fab, V domains shown)
VH: QVQLQQSGPELVKPGASVKISCKASGYVFSTSWMSWVKQRPGEGPEWIGRIYPRDGHSSSTGKFKDKATLTADKSSNTAYIHLSSLTSEDSAVYFCARDYGYYYFDYWGQGTTLTVSS
VL: DIQMTQSPASLSASVGEAVTITCRLSENVYSFLAWYQQKQGKSPQLLVYRAKTLAEGVPSRFSGSGSGTQFSLKINSLQPEDFGTYYCQHHYGTPPTFGGGTKLEIK
Take B10: the binding result in the assay with SARS-CoV-2 WA1 RBD [6] is “binds”.

B11: HSW-2 (antibody, V domains shown)
VH: B10 VH
VL: B10 VL
Regarding B11, the binding result with SARS-CoV-2 WA1 RBD [3] is listed as “binds”; with SARS-CoV RBD [5], “no binding (tested: up to 100 µg/mL IgG)”.

B12: M8a-31 (antibody, V domains shown)
VH: EVQLKQSVAELVRPGASVKVSCTASGFNIKNIYMHWVKQRPEQGLDWIGRIDPANGNSRYAPKFQDKATITADTSSNTAYLQLSSLTSEDTAIYYCADEGWGFANWGQGTLVTVSA
VL: DIVMTQSPSSLTVTAGEKVTMSCKSSQSLLNSGNQKNYLTWYQQKVGQPPKLLIYWASTRDPGVPDRFTGSGFGTDFTLTISSVQAEDLAVYYCQNDYSYPLTFGAGTKVELK
For the molecule B12, the binding result with SARS-CoV RBD [2] and in the assay with SARS-CoV-2 WA1 RBD [7] was “binds” in each case.
